According to article PMC3282623, “High-pressure-induced water penetration into 3-isopropylmalate dehydrogenase” (Acta Crystallographica Section D: Biological Crystallography, 2012):

Target: the molecule itself
Assay: crystal structure; crystals of the SoIPMDH-IPM complex, space group C2, room temperature, in a glass capillary (0.1 MPa) or a diamond anvil cell (160, 340, 410, 580 and 650 MPa); 18% PEG 3350, 100 mM Na HEPES pH 7.0, 200 mM calcium acetate, 10 mM magnesium chloride, 10 mM IPM

B1: 3-isopropylmalate dehydrogenase (IPMDH) from Shewanella oneidensis MR-1 (enzyme)
chain: SYQIAVLAGDGIGPEVMAEARKVLKAVEARFGLNIEYTEYDVGGIAIDNHGCPLPEATLKGCEAADAILFGSVGGPKWEKLPPNEQPERGALLPLRGHFELFCNLRPAKLHDGLEHMSPLRSDISARGFDVLCVRELTGGIYFGKPKGRQGEGESEEAFDTMRYSRREISRIARIAFEAARGRRKKVTSVDKANVLACSVLWRQVVEEVAVDFPDVELEHIYIDNATMQLLRRPDEFDVMLCSNLFGDILSDEIAMLTGSMGLLSSASMNSTGFGLFEPAGGSAPDIAGKGIANPIAQILSAALMLRHSLKQEEAASAIERAVTKALNSGYLTGELLSSDQRHKAKTTVQMGDFIADAVKAGV
notes: 3-isopropylmalate dehydrogenase, product of the leuB gene of Shewanella oneidensis MR-1, subcloned into the BamHI/HindIII sites of pQE-80L (vector pQE-MR1-leuB); Crystallised in complex with its substrate 3-isopropylmalate (IPM) and a divalent cation; the two subunits of the dimer are related by the crystallographic twofold axis; also called SoIPMDH
With B1 the “stoichiometry N” value was 2.
